Drawing on article PMC6273323 (2016), this text covers Kd for one molecule.

Non-standard residues stand in square brackets, D forms with d. No end group written: not given here. Phe(4-F) = N[C@@H](Cc1ccc(F)cc1)C(=O)O

The experiment addresses T1, DF*NNN fluorinated iNOS peptide.
T1 chain: D[Phe(4-F)]NNN
Description: SPR. Background: Surface plasmon resonance follows binding to a sensor surface in real time, without labels.

B1: SPSB2 (protein)
chain: MGQTALARGSSSTPTSQALYSDFSPPEGLEELLSAPPPDLVAQRHHGWNPKDCSENIDVKEGGLCFERRPVAQSTDGVRGKRGYSRGLHAWEISWPLEQRGTHAVVGVATALAPLQADHYAALLGSNSESWGWDIGRGKLYHQSKGLEAPQYPAGPQGEQLVVPERLLVVLDMEEGTLGYSIGGTYLGPAFRGLKGRTLYPSVSAVWGQCQVRIRYMGERRVEEPQSLLHLSRLCVRHALGDTRLGQISTLPLPPAMKRYLLYK
On to B1, for which the Kd (in general, the concentration at which binding is half-saturated) turned out to be 3000 nM.
